Experimental data published in patent US20250354133A1, “SIALIDASE FUSION MOLECULES AND RELATED USES” (The Scripps Research Institute, priority 2022, published 2025).

Experiments:
[1] = system: HER2 positive SK-BR-3 human breast cancer cells; test: BiTE-induced T cell cytotoxicity by LDH release, SK-BR-3 target cells; type: cell-based
Experimental: To evaluate whether desialylation may enhance the susceptibility of tumor cells to BiTE-mediated cytotoxicity by T cells, we first constructed a BiTE molecule from a HER2-targeting scFv 4D5 and a human CD3-targeting scFv (4D5 BiTE). We then treated HER2 positive SK-BR-3 human breast cancer cells with a sialidase derived from Bifidobacterium longum subspecies infantis (B. infantis) to remove cell surface sialic acids. Following this procedure, treated cells were incubated with PBMCs from healthy human donors in the presence of 4D5 BiTE. Staining with FITC-Sambucus nigra agglutinin (SNA) that binds preferentially to sialic acid attached to terminal galactose in an a-2,6 linkage confirmed the success of cell surface desialylation. […] A similar trend was observed when 4D5 BiTE treatment was combined with a sialylation inhibitor, P-3Fax-Neu5Ac (FIG. 1, b). Next, we treated SK-BR-3 and MCF-7 breast cancer cells with 4D5 BiTE and hPBMCs in the presence or absence of B. infantis sialidase, respectively. […] The cytotoxicity enhancement is also observed with a different E: T ratio of 1:1 and the improvement of the BiTE-induced killing was sialidase dose-dependent.
(§1) Cell cytotoxicity measurement by lactate dehydrogenase (LDH) release: T cell cytotoxicity induced by BiTEs and BiTE-sialidase fusion proteins was measured by lactate dehydrogenase (LDH) release using CytoTox 96® Non-Radioactive Cytotoxicity Assay (Promega, G1780). tumor cells and hPBMCs (tumor cell:hPBMC=1:5) per well in […] media were exposed to different treatments and incubated in 96 well plates at 37° C. (unless different ratio was specified elsewhere). After 24 hours of coincubation, […] of media supernatant from each well was transferred to a new flat bottom 96 well plate and LDH release was measured using the supplier's protocol.

[2] = system: CD19+ (Daudi) and EGFR+ (A549) cells; test: BiKE-sialidase desialylation selectivity in co-culture; type: cell-based, human; details: 10 nM, 1h, serum-free medium, SNA or MALII staining
Experimental: We compared the desialylation activity and selectivity of BiKE-CD19-Sia and BIKE-EGFR-Sia in a co-culture assay comprising CD19+ (Daudi) and EGFR+ (A549) cells, respectively. 1:1 ratio of daudi cells and A549 cells were treated with PBS, 10 nM BiKE-CD19-Sia or 10 nM BiKE-EGFR-Sia for 1h in serum-free medium, followed by staining with SNA-biotin (targets α2,6-linker sialoglycans) or MALII-biotin (targets α2,3-linker sialoglycans) in HBSS buffer for 30 min. Next, the cell mixtures were stained by streptavidin-APC and EGFR-Pc5.5.

T cells [3] = test: T cell surface activation markers (CD25, CD69, CD107a) by flow cytometry; type: cell-based, human; details: with 4D5 BiTEs
Experimental: (§2) Cytokine release and T cell surface activation marker measurement: For T cell cytokine release measurement, as with the cytotoxicity experiment, tumor cells and hPBMCs (tumor cell:hPBMC=1:5) were co-incubated per well in 96 well plates with different treatments in […] media at 37° C. for 24 hours. Then, […] of supernatant from each well was diluted in […] DPBS and used for IFN-γ, IL-2 and TNFα measurement. The ELISA measurement was done by ELISA MAX™ Sets. IFN-γ, IL-2 and TNFα kits (BioLegend) and the experiments were done according to the manufacturer's protocol. The exact concentration was calculated from a standard curve. For the cell surface activation marker measurement, tumor cells and hPBMCs (tumor cell:hPBMC=1:5) were co-incubated per well in 12 well plates with different treatments in 1 mL media at 37° C. for 24 hours. […] Cells were then washed twice with FACS buffer (PBS with 2.5% BSA) before being analyzed using flow cytometry. Data analysis and mean fluorescence intensity calculation were done by Flowjo. For the transcriptome analysis, 1.2 million hPBMCs and 0.1 million MDA-MB-231 cells were incubated together under the treatment of either 4 nM 4D5 BiTE or 4 nM 4D5 BiTE-sialidase (Three replicas for each condition). […]

[4] = system: immune synapse between T cells and tumor cells; test: BiTE-induced immune synapse formation, confocal imaging of CD3 and actin; type: cell-based, human
Source text: Formation of the BiTE-induced immunological synapse (IS) between target cells and T cells is the essential mode of action of BiTEs. We hypothesized that the removal of cell-surface sialosides may promote stronger BiTE-induced IS formation between target tumor cells and T cells and thus better tumor cell killing. Accumulation of the TCR-CD3 complex and F-actin at the synapse is a hallmark of a stable and functional cytolytic IS in T cells. To test whether desialylation can promote IS formation, we imaged the IS formed between T cells and sialidase-treated and non-treated SK-BR-3 cells by staining F-actin and CD3. The resulting immunofluorescence was imaged by confocal microscopy. […] To assess the stability of the IS formed, we calculated the relative CD3 fluorescence intensity at the IS and the relative area of the IS.
Staining of human […] and actin for confocal imaging: Briefly, 0.4 million tumors cells were treated with 4 nM 4D5 BiTE or 4 nM 4D5 BiTE with 15 mg/ML sialidase in […] DMEM without the serum for 1 hr at 37° C. After the incubation, all the samples were washed twice using PBS before incubating with 0.4 million hPBMCs in 500 ml PBS for 30 min at 37° C. Then all the cells were transferred in 1 ml PBS to the coverslips in 12 well plates and incubated at 37° C. for 30 min to let cells attach to the coverslip. 1 ml 4% PFA was added to each well and incubated with shaking for 20 min at room temperature (RT) for cell fixing, and then each well was washed twice with ice cold PBS. […] PBST was used for washing for three times before anti-rabbit 488 (Invitrogen, 35553) and anti-mouse 594 ((Invitrogen, A-11005) secondary antibody was diluted and used for staining at RT for 30 min with shaking. Finally, samples were washed three times and each coverslip was transferred to a glass slide with mounting oil. Fingernail oil was used to seal the coverslip. Samples were analyzed on a Zeiss LSM880 with a 63× oil lens (NA 1.4). The relative mean fluorescent intensity (MFI) of […] accumulation and relative contact area of IS was calculated by imageJ.

T cells [5] = test: T cell cytokine release (IFN-γ, IL-2, TNFα) by ELISA; type: cell-based, human; details: MCF7 cells incubated with hPBMCs and BiTE
Experimental: as §2

PSMA-positive PC3 cells = test: PSMA BiTE-induced T cell cytotoxicity, PC3 target cells; type: cell-based, human; details: sialidase and PSMA BiTEs added at the same time
Experimental: (§3) To evaluate whether desialylation may enhance the susceptibility of tumor cells to BiTE-mediated cytotoxicity by T cells, we first constructed a BiTE molecule from a HER2-targeting scFv 4D5 and a human CD3-targeting scFv (4D5 BiTE). We then treated HER2 positive SK-BR-3 human breast cancer cells with a sialidase derived from Bifidobacterium longum subspecies infantis (B. infantis) to remove cell surface sialic acids. Following this procedure, treated cells were incubated with PBMCs from healthy human donors in the presence of 4D5 BiTE. Staining with FITC-Sambucus nigra agglutinin (SNA) that binds preferentially to sialic acid attached to terminal galactose in an a-2,6 linkage confirmed the success of cell surface desialylation. […]
as §1, with “(unless different ratio was specified elsewhere).” left out

[6] = system: MCF-7 breast cancer cells; test: BiTE-induced T cell cytotoxicity, MCF-7 target cells; type: cell-based, human
Experimental: as §3
as §1, with “(unless different ratio was specified elsewhere).” left out

[7] = sialidase-treated vs untreated SK-BR-3 cells, 4D5 BiTE
[8] = vs 4D5 BiTEs+hPBMCs and sialidase+hPBMCs controls

recombinant human CTLA-4: a high affinity ligand of CD80 [reference compound]
desialylation-enhanced cytolysis with added CTLA-4 ([1]; high concentrations of CTLA-4 added with sialidase and 4D5 BiTE): no change in the enhanced cytolysis

B1: BIKE-EGFR-Sia: anti-EGFR BiKE-sialidase fusion, TAL4S format, SEQ ID NO: 28 (protein)
chain: QVQLQESGPGLVKPSETLSLTCTVSGGSVSSGSYYWSWIRQPPGKGLEWIGYIYYSGSTNYNPSLKSRVTISVDTSKNQFSLKLSSVTAADTAVYYCARNPISIPAFDIWGQGTMVTVSSGGGGSGGGGSGGGGSQPVLTQPPSVSVAPGKTARITCGGNNIGSKSVHWYQQKPGQAPVLVIYYDSDRPSGIPERFSGSNSGNTATLTISRVEAGDEADYYCQVWDTSSDHVLFGGGTKLTVLGGGGSQVQLVQSGAEVKKPGESLKVSCKASGYTFTSYYMHWVRQAPGQGLEWMGIINPSGGSTSYAQKFQGRVTMTRDTSTSTVYMELSSLRSEDTAVYYCARGSAYYYDFADYWGQGTLVTVSSGGGGSGGGGSGGGGSSYVLTQPSSVSVAPGQTATISCGGHNIGSKNVHWYQQRPGQSPVLVIYQDNKRPSGIPERFSGSNSGNTATLTISGTQAMDEADYYCQVWDNYSVLFGGGTKLTVLGGGGSGGGGSGGGGSGGGGSMTENGMMNTNNTVCGANHDGAMSLAAPGDYGVACYRIPALAEAPNGWILAAFDARPHNCQDAPQANSIVQRISKDGGRSFEPQHVVAAGHDGVDKYGYSDPSYVVDRQTGEVFLFFVKSYDAGFGTSQAGVDPSAREVLQAAVTSSIDNGVTWSEPRIITADITNSESWISRFASSGAGIQLTYGEHAGRLIQQYTIKELDGRYRAVSVFSDDHGATWHAGTPVGDHMDENKVVELSDGRVMLNSRSSDGNGCRYVAISRDGGATYGPVIRETQLPDPENNAQIARAFPDAPEGSAQAKVLLYSSSSPSDRIDGLVRVSIDDGKTWSAGRRFTTGPMAYSVIAALSHKAGGGYGLLYEGDNNNIMYTRISLDWLNGQLNVDGIGGFPLSGEGGC
selective desialylation activity [2]: selective desilylation activity

B2: B. infantis sialidase: sialidase derived from Bifidobacterium longum subspecies infantis, SEQ ID NO: 5 (protein, listed as Bifidobacterium longum)
chain: MTENGMMNTNNTVCGANHDGAMSLAAPGDYGVACYRIPALAEAPNGWILAAFDARPHNCQDAPQANSIVQRISKDGGRSFEPQHVVAAGHDGVDKYGYSDPSYVVDRQTGEVFLFFVKSYDAGFGTSQAGVDPSAREVLQAAVTSSIDNGVTWSEPRIITADITNSESWISRFASSGAGIQLTYGEHAGRLIQQYTIKELDGRYRAVSVFSDDHGATWHAGTPVGDHMDENKVVELSDGRVMLNSRSSDGNGCRYVAISRDGGATYGPVIRETQLPDPENNAQIARAFPDAPEGSAQAKVLLYSSSSPSDRIDGLVRVSIDDGKTWSAGRRFTTGPMAYSVIAALSHKAGGGYGLLYEGDNNNIMYTRISLDWLNGQLNVDGIGGFPLSGEGGC
T cell activation (CD25 and CD69 expression) on addition of sialidase (T cells [3]): significantly enhanced
BiTE-induced immune synapse formation ([4]; SKOV-3 cells and T cells, with sialidase treatment): better IS formed
CD3 accumulation at the immune synapse [4, 7]: significantly stronger CD3 accumulation
relative immune synapse area [4, 7]: larger IS area
IFN-γ secretion on addition of sialidase (T cells [5]): significantly enhanced
4D5 BiTE-induced tumor cell killing by T cells after sialidase treatment ([1]; tumor cells pre-treated with sialidase, hPBMCs, effector:target 5:1, vs 4D5 BiTEs alone): significantly potentiated the 4D5 BiTE-induced tumor cell killing
killing with 4D5 BiTE and hPBMCs in presence of sialidase [1, 8]: stronger killing
PSMA BiTE-induced cytotoxicity with sialidase (PSMA-positive PC3 cells): stronger cytotoxicity enhancement
BiTE-mediated target cell killing with sialidase treatment ([6]; purified T cells as effectors): better BiTE-mediated target cell killing
killing with 4D5 BiTE and hPBMCs in presence of sialidase [6, 8]: stronger killing
